Source: patent US20050119205A1, “Methods of modulating heme oxygenase-1 expression and treating heme oxygenase-1 mediated conditions” (published 2005)
Substitutions are numbered along the chain they refer to.

Key:
[1] = molecular target: the molecule itself; test: native PAGE (approx. 69 kDa band) against SDS-PAGE (~35 and ~40 kDa bands) of in vitro translated protein
Experimental: The transcribed mRNA was translated in the presence of [35S] methionine using rabbit reticulocyte lysate. In vitro translation was performed using micrococcal nuclease treated rabbit reticulocyte lysate (Promega). 50 μl reaction mixture was prepared by using 35 μl lysate, 1 μl of 0.1 M DTT, 2 μl of 1 mM amino acid mixture minus methionine, 1 μl of RNase inhibitor and 5 μl translation grade [³⁵S] methionine. 5 μl transcribed mRNA was added to the above reaction mixture and immediately incubated at 30° C. for 90 minutes. The in vitro translated proteins were resolved on 12% SDS or native polyacrylamide gel along with rainbow or native high molecular weight markers, respectively (Amersham Pharmacia). The gels were fixed in 10% acetic acid and 30% methanol then treated with autoradiography enhancer (Amplify, Amersham Pharmacia) for 30 min and dried under vacuum at 80° C. for 2 h, and autoradiographed at −70° C.
In vitro translated protein was assayed on native gel immediately after synthesis. […] A portion of the translated protein was treated with SDS and analyzed on denaturing 12% polyacrylamide gel.
Next, whether the protein synthesized by reticulocyte lysate is in fact hBVR was tested. […] As shown in the autoradiogram, two prominent bands at ˜35 and ˜40 kDa were detected. hBVR, based on its predicted amino acid composition, has a molecular weight of ˜34 kDa (Maines et al., Eur. J. Biochem.

[2] = molecular target: the molecule itself; test: native 12% polyacrylamide gel, homodimer (~69 kDa band) formation
Experimental: In vitro translated protein was assayed on native gel immediately after synthesis. One μl of in vitro translated material was added to 2 μl (25 ng) of annealed, unlabelled control DNA fragment. To this 0.4 μg of poly dI•dC (Amersham Pharmacia) in 14 μl DNA binding buffer (10 mM Tris-chloride [pH 7.4], 50 mM NaCl, 1 mM MgCl₂, 1 mM EDTA, 1 mM DTT, 5% glycerol) was added. It was incubated for 5 min at room temperature and after adding 5 μl loading buffer (1.5×DNA binding buffer with bromophenol blue dye) samples were resolved on 12% native polyacrylamide gel in TAE buffer at 35 milliamps. The control DNA helps to prevent the formation of nonspecific protein aggregates, thereby increasing the resolution of protein bands (Halazonetis et al., Cell 55:917-924 (1988), which is hereby incorporated by reference in its entirety). A portion of the translated protein was treated with SDS and analyzed on denaturing 12% polyacrylamide gel.
(§1) For this set of experiments, the [³⁵S] methionine-labeled mutant BVR proteins were generated by in vitro translation and assayed on a 12% native gel for detection of the ˜69 kDa protein band and analysis of DNA for complex formation. The 100-mer DNA fragment with two AP-1 sites or without an AP-1 site were used. On the native gel the high molecular weight band was not detected with the mutated proteins.

[3] = molecular target: T1, heme oxygenase-1 (hHO-1), E. coli expressed (Homo sapiens, UniProt P09601 P09601:1-288); test: EMSA; specificity control; conditions: label: 32P 5'
T1 sequence: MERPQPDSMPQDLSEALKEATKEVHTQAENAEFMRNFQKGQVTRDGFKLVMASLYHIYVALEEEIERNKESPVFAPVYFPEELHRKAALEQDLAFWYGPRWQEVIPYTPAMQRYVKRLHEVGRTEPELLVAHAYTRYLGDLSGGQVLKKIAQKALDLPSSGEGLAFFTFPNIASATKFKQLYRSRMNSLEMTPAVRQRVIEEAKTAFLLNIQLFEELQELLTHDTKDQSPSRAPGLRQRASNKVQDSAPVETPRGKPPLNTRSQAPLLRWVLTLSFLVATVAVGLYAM

[4] = molecular target: T2, hBVR K143A (Homo sapiens, UniProt P53004 SEQ:1-296, K143A); test: EMSA; background signal only; conditions: tags: rabbit reticulocyte lysate; chain copies: 2; label: 32P 5'
T2 sequence: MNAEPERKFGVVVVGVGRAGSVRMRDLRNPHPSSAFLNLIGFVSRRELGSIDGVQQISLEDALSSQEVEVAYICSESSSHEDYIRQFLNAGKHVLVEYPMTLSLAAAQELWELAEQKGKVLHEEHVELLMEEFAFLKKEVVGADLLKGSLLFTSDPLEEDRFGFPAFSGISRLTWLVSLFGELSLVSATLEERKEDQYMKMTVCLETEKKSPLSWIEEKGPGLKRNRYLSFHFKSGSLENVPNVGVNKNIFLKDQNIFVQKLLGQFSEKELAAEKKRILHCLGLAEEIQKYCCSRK
Experimental: (§2) As with native gel analysis, in vitro translated proteins were assayed for DNA binding immediately after synthesis. 1 μl of translated material was added to 5000-500,000 cpm of [³²P]-labeled DNA fragment representing approximately 2-3 ng of DNA. 0.1 μg of poly (dI•dC) in 10 μl of DNA binding buffer was added to the labeled DNA. After incubating samples for 20 min at room temperature, 5 μl loading buffer was added. The samples were resolved on 12% native polyacrylamide gel with 35 m Amp at 4° C. The gels were processed as described above. Dried gels were put on two pieces of film separated by a piece of paper. Autoradiography was done at −70° C. for different time periods.
as §1

[5] = molecular target: T3, hBVR L157A (Homo sapiens, UniProt P53004 SEQ:1-296, L157A); test: EMSA; background signal only; conditions: tags: rabbit reticulocyte lysate; chain copies: 2; label: 32P 5'
T3 sequence: T2 sequence with A143K, L157A
Experimental: as §2, §1

[6] = molecular target: T4, hBVR L150A (Homo sapiens, UniProt P53004 SEQ:1-296, L150A); test: EMSA; background signal only; conditions: tags: rabbit reticulocyte lysate; chain copies: 2; label: 32P 5'
T4 sequence: T2 sequence with A143K, L150A
Experimental: as §2, §1

[7] = molecular target: T5, heme oxygenase-1 (HO-1), in vitro translated (UniProt P09601 P09601:1-288); test: EMSA; specificity control; conditions: tags: rabbit reticulocyte lysate; label: 32P 5'
T5 sequence: T1 sequence

[8] = molecular target: T2, hBVR K143A; test: EMSA; signal same as native hBVR with zero AP-1 DNA; conditions: tags: rabbit reticulocyte lysate; chain copies: 2; label: 32P 5'
Experimental: as §2, §1

[9] = molecular target: T3, hBVR L157A; test: as above; conditions: tags: rabbit reticulocyte lysate; chain copies: 2; label: 32P 5'
Experimental: as §2, §1

[10] = molecular target: T4, hBVR L150A; test: as above; conditions: tags: rabbit reticulocyte lysate; chain copies: 2; label: 32P 5'
Experimental: as §2, §1

[11] = molecular target: T6, biliverdin reductase (hBVR) (Homo sapiens, UniProt P53004 SEQ:1-296); test: EMSA; 10 mM Tris pH 7.4, 50 mM NaCl, 1 mM MgCl2, 1 mM EDTA, poly(dI-dC), room temperature; conditions: tags: rabbit reticulocyte lysate, 35S-Met labelled; chain copies: 2 (stated homodimer); label: 32P 5'
T6 chain: T2 sequence with A143K
Experimental: as §2
(§3) To determine whether the synthesized HBVR binds to DNA, the in vitro translated hBVR was incubated with [³²P]-labeled 56-mer or 100-mer DNA fragments. An identical 56 bp fragment in which the AP-I site was substituted with an unrelated sequence of equal length was used as control DNA. In addition, two identical 100 bp fragments with one AP-1 or zero AP-1 sites were synthesized and used as controls (OL.619, OL.620; OL.623-OL.630, Table 1). […] Also, binding of E. coli expressed hBVR protein, which is in monomeric form, to the 100-mer DNA fragment with two AP-1 sites was not detected.

[12] = molecular target: T6, biliverdin reductase (hBVR); test: EMSA; conditions: tags: rabbit reticulocyte lysate, 35S-Met labelled; chain copies: 2 (stated homodimer); label: 32P 5'
Experimental: as §2, §3

B1: in vitro translated human biliverdin reductase (hBVR) (enzyme)
chain: T2 sequence with A143K
notes: the entries concern its self-association into a homodimer; also called translated hBVR; native in vitro translated hBVR
- binding result [1]: binds

B2: in vitro translated hBVR mutant K143A (enzyme)
chain: T2 sequence
notes: Site-directed mutant made in p507 and translated in vitro with [35S] methionine; also called K3 mutant
- binding result [2]: no binding

B3: in vitro translated hBVR mutant L150A (enzyme)
chain: T2 sequence with A143K, L150A
notes: Site-directed mutant made in p507 and translated in vitro with [35S] methionine; also called L4 mutant
- binding result [2]: no binding

B4: in vitro translated hBVR mutant L157A (enzyme)
chain: T2 sequence with A143K, L157A
notes: Site-directed mutant made in p507 and translated in vitro with [35S] methionine; also called L5 mutant
- binding result [2]: no binding

B5: 100-mer, zero AP-1 sites (OL.625/OL.626) (dsDNA)
DNA 1: TCCTCAGCTGCTTTTATGCGATCCTCTGGTTGGGAGGGGTGATTAGCAGACAAAGGGAAGACAGATTTTGCGATCCTCCCCTCTGTTCCCTCTGCCTCAG
DNA 2: CTGAGGCAGAGGGAACAGAGGGGAGGATCGCAAAATCTGTCTTCCCTTTGTCTGCTAATCACCCCTCCCAACCAGAGGATCGCATAAAAGCAGCTGAGGA
- binding result [3]: no binding
- binding result [4]: no binding
- binding result [5]: no binding
- binding result [6]: no binding

B6: 100-mer HO-1 promoter, two AP-1 sites (OL.623/OL.624) (dsDNA)
DNA 1: TCCTCAGCTGCTTTTATGCTGTGTCATGGTTGGGAGGGGTGATTAGCAGACAAAGGGAAGACAGATTTTGCTGAGTCACCCTCTGTTCCCTCTGCCTCAG
DNA 2: CTGAGGCAGAGGGAACAGAGGGTGACTCAGCAAAATCTGTCTTCCCTTTGTCTGCTAATCACCCCTCCCAACCATGACACAGCATAAAAGCAGCTGAGGA
- binding result [3]: no binding
- binding result [7]: no binding
- binding result [8]: no binding
- binding result [9]: no binding
- binding result [10]: no binding
- binding result [11]: binds

B7: 56-mer, one AP-1 site (OL.627/OL.628) (dsDNA)
DNA 1: CACTGAGAGAAACTATTACACAAGCCACATTAGCATGACTCATTGTTTCTGATCAG
DNA 2: CTGATCAGAAACAATGAGTCATGCTAATGTGGCTTGTGTAATAGTTTCTCTCAGTG
- binding result [7]: no binding
- binding result [12]: no binding
